*1 amine or outer side, *2 acyl side, *3 side chain or, on linkers, in order; H or OH if unused. Side-chain parts run from the residue outwards. The star is where a group is joined. C18 diacid = O=C(O)CCCCCCCCCCCCCCCCC(=O)*; γGlu = O=C(O)[C@H](CCC(=O)[*:2])N[*:1]; Isovaleryl = CC(C)CC(=O)*; AEEA = NCCOCCOCC(=O)O
T1: human neuropeptide Y2 receptor (human, UniProt P49146 1-381)
T1 construct: whole, on cells; also called hNPY2 receptor; hNPY2-R
T1 sequence (looked up): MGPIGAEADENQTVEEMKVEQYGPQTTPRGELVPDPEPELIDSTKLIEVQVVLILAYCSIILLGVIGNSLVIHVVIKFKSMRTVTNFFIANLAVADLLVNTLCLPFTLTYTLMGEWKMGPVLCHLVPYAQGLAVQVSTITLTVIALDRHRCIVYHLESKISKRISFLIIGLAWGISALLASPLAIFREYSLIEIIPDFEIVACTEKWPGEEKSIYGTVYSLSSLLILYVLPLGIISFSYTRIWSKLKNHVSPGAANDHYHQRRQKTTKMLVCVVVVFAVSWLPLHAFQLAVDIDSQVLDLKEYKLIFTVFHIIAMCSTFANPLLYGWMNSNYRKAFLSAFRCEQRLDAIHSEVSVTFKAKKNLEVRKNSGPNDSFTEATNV

B1: Compound 218 (peptide)
peptide: Isovaleryl-APEK([AEEA-AEEA-γGlu-C18 diacid])PEEDSSPEELQRYYVALRHYYNWLTRQRY-NH2
SMILES: CC(C)CC(=O)N[C@@H](C)C(=O)N1CCC[C@H]1C(=O)N[C@@H](CCC(=O)O)C(=O)N[C@@H](CCCCNC(=O)COCCOCCNC(=O)COCCOCCNC(=O)CC[C@H](NC(=O)CCCCCCCCCCCCCCCCC(=O)O)C(=O)O)C(=O)N1CCC[C@H]1C(=O)N[C@@H](CCC(=O)O)C(=O)N[C@@H](CCC(=O)O)C(=O)N[C@@H](CC(=O)O)C(=O)N[C@@H](CO)C(=O)N[C@@H](CO)C(=O)N1CCC[C@H]1C(=O)N[C@@H](CCC(=O)O)C(=O)N[C@@H](CCC(=O)O)C(=O)N[C@@H](CC(C)C)C(=O)N[C@@H](CCC(N)=O)C(=O)N[C@@H](CCCNC(=N)N)C(=O)N[C@@H](Cc1ccc(O)cc1)C(=O)N[C@@H](Cc1ccc(O)cc1)C(=O)N[C@H](C(=O)N[C@@H](C)C(=O)N[C@@H](CC(C)C)C(=O)N[C@@H](CCCNC(=N)N)C(=O)N[C@@H](Cc1c[nH]cn1)C(=O)N[C@@H](Cc1ccc(O)cc1)C(=O)N[C@@H](Cc1ccc(O)cc1)C(=O)N[C@@H](CC(N)=O)C(=O)N[C@@H](Cc1c[nH]c2ccccc12)C(=O)N[C@@H](CC(C)C)C(=O)N[C@H](C(=O)N[C@@H](CCCNC(=N)N)C(=O)N[C@@H](CCC(N)=O)C(=O)N[C@@H](CCCNC(=N)N)C(=O)N[C@@H](Cc1ccc(O)cc1)C(N)=O)[C@@H](C)O)C(C)C
B2: Compound 224 (peptide)
peptide: Isovaleryl-APEK([AEEA-AEEA-γGlu-C18 diacid])PGEEASPEELEQYYVSLRHYYNWLTRQRY-NH2
SMILES: CC(C)CC(=O)N[C@@H](C)C(=O)N1CCC[C@H]1C(=O)N[C@@H](CCC(=O)O)C(=O)N[C@@H](CCCCNC(=O)COCCOCCNC(=O)COCCOCCNC(=O)CC[C@H](NC(=O)CCCCCCCCCCCCCCCCC(=O)O)C(=O)O)C(=O)N1CCC[C@H]1C(=O)NCC(=O)N[C@@H](CCC(=O)O)C(=O)N[C@@H](CCC(=O)O)C(=O)N[C@@H](C)C(=O)N[C@@H](CO)C(=O)N1CCC[C@H]1C(=O)N[C@@H](CCC(=O)O)C(=O)N[C@@H](CCC(=O)O)C(=O)N[C@@H](CC(C)C)C(=O)N[C@@H](CCC(=O)O)C(=O)N[C@@H](CCC(N)=O)C(=O)N[C@@H](Cc1ccc(O)cc1)C(=O)N[C@@H](Cc1ccc(O)cc1)C(=O)N[C@H](C(=O)N[C@@H](CO)C(=O)N[C@@H](CC(C)C)C(=O)N[C@@H](CCCNC(=N)N)C(=O)N[C@@H](Cc1c[nH]cn1)C(=O)N[C@@H](Cc1ccc(O)cc1)C(=O)N[C@@H](Cc1ccc(O)cc1)C(=O)N[C@@H](CC(N)=O)C(=O)N[C@@H](Cc1c[nH]c2ccccc12)C(=O)N[C@@H](CC(C)C)C(=O)N[C@H](C(=O)N[C@@H](CCCNC(=N)N)C(=O)N[C@@H](CCC(N)=O)C(=O)N[C@@H](CCCNC(=N)N)C(=O)N[C@@H](Cc1ccc(O)cc1)C(N)=O)[C@@H](C)O)C(C)C
B3: Compound 223 (peptide)
peptide: Isovaleryl-APEK([AEEA-AEEA-γGlu-C18 diacid])PEEAAEPEELQRYYVSLRHYYNWLTRQRY-NH2
SMILES: CC(C)CC(=O)N[C@@H](C)C(=O)N1CCC[C@H]1C(=O)N[C@@H](CCC(=O)O)C(=O)N[C@@H](CCCCNC(=O)COCCOCCNC(=O)COCCOCCNC(=O)CC[C@H](NC(=O)CCCCCCCCCCCCCCCCC(=O)O)C(=O)O)C(=O)N1CCC[C@H]1C(=O)N[C@@H](CCC(=O)O)C(=O)N[C@@H](CCC(=O)O)C(=O)N[C@@H](C)C(=O)N[C@@H](C)C(=O)N[C@@H](CCC(=O)O)C(=O)N1CCC[C@H]1C(=O)N[C@@H](CCC(=O)O)C(=O)N[C@@H](CCC(=O)O)C(=O)N[C@@H](CC(C)C)C(=O)N[C@@H](CCC(N)=O)C(=O)N[C@@H](CCCNC(=N)N)C(=O)N[C@@H](Cc1ccc(O)cc1)C(=O)N[C@@H](Cc1ccc(O)cc1)C(=O)N[C@H](C(=O)N[C@@H](CO)C(=O)N[C@@H](CC(C)C)C(=O)N[C@@H](CCCNC(=N)N)C(=O)N[C@@H](Cc1c[nH]cn1)C(=O)N[C@@H](Cc1ccc(O)cc1)C(=O)N[C@@H](Cc1ccc(O)cc1)C(=O)N[C@@H](CC(N)=O)C(=O)N[C@@H](Cc1c[nH]c2ccccc12)C(=O)N[C@@H](CC(C)C)C(=O)N[C@H](C(=O)N[C@@H](CCCNC(=N)N)C(=O)N[C@@H](CCC(N)=O)C(=O)N[C@@H](CCCNC(=N)N)C(=O)N[C@@H](Cc1ccc(O)cc1)C(N)=O)[C@@H](C)O)C(C)C
B4: Compound 219 (peptide)
peptide: Isovaleryl-APEK([AEEA-AEEA-γGlu-C18 diacid])PEEEAAPEELQRYYVSLRHYYNWLTRQRY-NH2
SMILES: CC(C)CC(=O)N[C@@H](C)C(=O)N1CCC[C@H]1C(=O)N[C@@H](CCC(=O)O)C(=O)N[C@@H](CCCCNC(=O)COCCOCCNC(=O)COCCOCCNC(=O)CC[C@H](NC(=O)CCCCCCCCCCCCCCCCC(=O)O)C(=O)O)C(=O)N1CCC[C@H]1C(=O)N[C@@H](CCC(=O)O)C(=O)N[C@@H](CCC(=O)O)C(=O)N[C@@H](CCC(=O)O)C(=O)N[C@@H](C)C(=O)N[C@@H](C)C(=O)N1CCC[C@H]1C(=O)N[C@@H](CCC(=O)O)C(=O)N[C@@H](CCC(=O)O)C(=O)N[C@@H](CC(C)C)C(=O)N[C@@H](CCC(N)=O)C(=O)N[C@@H](CCCNC(=N)N)C(=O)N[C@@H](Cc1ccc(O)cc1)C(=O)N[C@@H](Cc1ccc(O)cc1)C(=O)N[C@H](C(=O)N[C@@H](CO)C(=O)N[C@@H](CC(C)C)C(=O)N[C@@H](CCCNC(=N)N)C(=O)N[C@@H](Cc1c[nH]cn1)C(=O)N[C@@H](Cc1ccc(O)cc1)C(=O)N[C@@H](Cc1ccc(O)cc1)C(=O)N[C@@H](CC(N)=O)C(=O)N[C@@H](Cc1c[nH]c2ccccc12)C(=O)N[C@@H](CC(C)C)C(=O)N[C@H](C(=O)N[C@@H](CCCNC(=N)N)C(=O)N[C@@H](CCC(N)=O)C(=O)N[C@@H](CCCNC(=N)N)C(=O)N[C@@H](Cc1ccc(O)cc1)C(N)=O)[C@@H](C)O)C(C)C
B5: Compound 220 (peptide)
peptide: Isovaleryl-APEK([AEEA-AEEA-γGlu-C18 diacid])PEEAASAEELQRYYVSLRHYYNWLTRQRY-NH2
SMILES: CC(C)CC(=O)N[C@@H](C)C(=O)N1CCC[C@H]1C(=O)N[C@@H](CCC(=O)O)C(=O)N[C@@H](CCCCNC(=O)COCCOCCNC(=O)COCCOCCNC(=O)CC[C@H](NC(=O)CCCCCCCCCCCCCCCCC(=O)O)C(=O)O)C(=O)N1CCC[C@H]1C(=O)N[C@@H](CCC(=O)O)C(=O)N[C@@H](CCC(=O)O)C(=O)N[C@@H](C)C(=O)N[C@@H](C)C(=O)N[C@@H](CO)C(=O)N[C@@H](C)C(=O)N[C@@H](CCC(=O)O)C(=O)N[C@@H](CCC(=O)O)C(=O)N[C@@H](CC(C)C)C(=O)N[C@@H](CCC(N)=O)C(=O)N[C@@H](CCCNC(=N)N)C(=O)N[C@@H](Cc1ccc(O)cc1)C(=O)N[C@@H](Cc1ccc(O)cc1)C(=O)N[C@H](C(=O)N[C@@H](CO)C(=O)N[C@@H](CC(C)C)C(=O)N[C@@H](CCCNC(=N)N)C(=O)N[C@@H](Cc1c[nH]cn1)C(=O)N[C@@H](Cc1ccc(O)cc1)C(=O)N[C@@H](Cc1ccc(O)cc1)C(=O)N[C@@H](CC(N)=O)C(=O)N[C@@H](Cc1c[nH]c2ccccc12)C(=O)N[C@@H](CC(C)C)C(=O)N[C@H](C(=O)N[C@@H](CCCNC(=N)N)C(=O)N[C@@H](CCC(N)=O)C(=O)N[C@@H](CCCNC(=N)N)C(=O)N[C@@H](Cc1ccc(O)cc1)C(N)=O)[C@@H](C)O)C(C)C

Biological target: T1, human neuropeptide Y2 receptor
Experiment: radioligand competition (125I-PYY(1-36)), hNPY2R membranes
Procedure, shortened: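 Commercial human Y2 receptor membranes (0.5 μg protein/well) were incubated with peptide for 2 h at room temperature in 50 mM HEPES, 5 mM MgCl₂, 1 mM CaCl₂, pH 7.4, with 0.2% ovalbumin. Bound radioligand was separated on PEI-soaked GF/C filters and counted by scintillation, and IC₅₀ came from nonlinear sigmoidal regression.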

Binder | Ki [nM]
B1 | 1.49
B2 | 4.64
B3 | 4.77
B4 | 7.6
B5 | 2.99
